This experiment has as its target T1, VEGFR-1/Ig (human, UniProt P17948).
T1 chain: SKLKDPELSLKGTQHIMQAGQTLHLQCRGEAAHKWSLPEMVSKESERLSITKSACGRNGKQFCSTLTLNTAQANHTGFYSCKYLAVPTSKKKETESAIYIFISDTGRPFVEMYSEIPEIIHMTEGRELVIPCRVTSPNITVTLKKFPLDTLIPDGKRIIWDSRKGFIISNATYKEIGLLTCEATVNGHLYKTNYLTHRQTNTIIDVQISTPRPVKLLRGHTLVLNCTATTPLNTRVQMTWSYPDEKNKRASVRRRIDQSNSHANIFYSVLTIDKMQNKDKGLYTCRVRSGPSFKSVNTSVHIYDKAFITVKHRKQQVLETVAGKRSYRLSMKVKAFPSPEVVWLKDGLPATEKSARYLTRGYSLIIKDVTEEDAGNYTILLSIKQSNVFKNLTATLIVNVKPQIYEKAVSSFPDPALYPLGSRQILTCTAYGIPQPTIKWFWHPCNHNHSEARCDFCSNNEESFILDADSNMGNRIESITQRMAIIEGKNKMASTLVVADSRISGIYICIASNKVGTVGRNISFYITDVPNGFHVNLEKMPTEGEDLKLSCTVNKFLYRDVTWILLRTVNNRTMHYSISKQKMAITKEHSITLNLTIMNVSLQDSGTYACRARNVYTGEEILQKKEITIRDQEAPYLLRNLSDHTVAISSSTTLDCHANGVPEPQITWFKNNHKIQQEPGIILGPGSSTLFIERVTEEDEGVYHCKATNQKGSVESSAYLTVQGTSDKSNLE
The experiment in a line: ELISA.

B1: VEGF-DΔNΔC (protein)
chain: FYDIETLKVIDEEWQRTQCSPRETCVEVASELGKSTNTFFKPPCVNVFRCGGCCNEESLICMNTSTSYISKQLFEISVPLTSVPELVPVKVANHTGCKCLPTAPRHPYS
In the case of B1, the binding result is on record as “no binding”.

For the origin of these results see patent US7097986 (dated 2006).
